# Test results: patent publication US20230321209A1
# B1: VME1_KLIFL SARS-CoV2 peptide with 9K poly-lysine tail (peptide)
# peptide: KKKKKKKKKKLIFLWLLWPVTLACFVLAAV
# B2: NCAP_ALALL SARS-CoV2 peptide with 6K poly-lysine tail (peptide)
# peptide: KKKKKKALALLLLDRLNQLESKMSGK
# B3: R1AB_GLVAE SARS-CoV2 peptide with 9K poly-lysine tail (peptide)
# peptide: KKKKKKKKKGLVAEWFLAYILFTRFFYVL
# B4: NCAP_AQFAP SARS-CoV2 peptide with 6K poly-lysine tail (peptide)
# peptide: KKKKKKAQFAPSASAFFGMSRIGMEV
# B5: VME1_LPKEI SARS-CoV2 peptide with 6K poly-lysine tail (peptide)
# peptide: KKKKKKLPKEITVATSRTLSYYKLGA
# B6: AP3A_GLEAP SARS-CoV2 peptide with 9K poly-lysine tail (peptide)
# peptide: KKKKKKKKKGLEAPFLYLYALVYFLQSINFV
# B7: R1AB_KVTLV SARS-CoV2 peptide with 6K poly-lysine tail (peptide)
# peptide: KKKKKKKVTLVFLFVAAIFYLITPVHVMSK
# Target: human Adenovirus capsid
# Experiment: SPR, peptide on adenovirus capsid (FIGS. 13A-13B)
row,Binder,"list of priority (rank by SPR binding, high binders listed first) [rank]"
1,B1,4
2,B2,9
3,B3,1
4,B4,7
5,B5,6
6,B6,2
7,B7,3
